Measurements taken from patent publication US10159707B2, “Treatment of cancers with immunostimulatory HIV Tat derivative polypeptides” (PIN Pharma, Inc., priority 2013, dated 2018).
Entries after “also recorded” stand apart in the source; their conditions may differ.

B1: Nani-P1: Tat derivative polypeptide SEQ ID NO:2; TF HIV-1, cysteine-rich HIV-1, C-terminal HIV-1 (protein)
chain: MEPVDANLEAWKHAGSQPRKTACTTCYCKKCCFHCQVCFTRKGLGISYGRKKRRQRRRAPQDSQTHQASLSKQPASQSRGDPTGPTESKKKVERETETDPFD
modifications: Tat derivative polypeptide
B2: Nani-P3: Tat derivative polypeptide SEQ ID NO:4; TF SIVsmm, cysteine-rich murine βdefensin, C-terminal HIV-1 (protein)
chain: METPLKEQENSLESCREHSSSISEVDVPTPVSCLRKGGRCWNRCIGNTRQIGSCGVPFLKCCKRKPFTRKGLGISYGRKKRRQRRRAPQDSQTHQASLSKQPASQSRGDPTGPTESKKKVERETETDPFD
modifications: Tat derivative polypeptide

Assays:
[1] = test system: 4T1 cells; experiment: Repeated dosing of Nani-P2 and cyclophosphamide in 4T1 tumor-bearing mice; type: in vivo, mouse; settings: cyclophosphamide 80 mg/kg IP weekly from day 10
Procedure: Four groups of 10 BALB/c mice were implanted with 1×10^4 4 T1 cells SC into the mammary fat pad. Treatment was initiated when tumor diameters reached 4-5 mm, on day 10. Control mice were injected IV with PBS at 3 days intervals, while alternating treatment mice received 3 doses of drug every 3 days in rotating 10 day cycles. Tumor burden (tumor size mm^3) was calculated using a standard formula. CY (cyclophosphamide alone) mice were injected IP weekly with 80 mg/kg per mouse beginning on day 10. Cy/Nani-P2 (cyclophosphamide first followed by Nani-P2) mice were first injected IP with cyclophosphamide (80 mg/kg) at 3 days intervals for three doses starting at day 10 and then injected IV with Nani-P2 (40 ng) at 3 days intervals for three doses in rotation. The cycle of 3 doses of CY followed by 3 doses of Nani-P2 was repeated until day 50. Nani-P2/CY (Nani-P2 first followed by cyclophosphamide) mice were first injected IV with Nani-P2 (40 ng) at 3 day intervals for 3 doses starting on day 10 and then injected i.p. with cyclophosphamide at 3 day intervals in rotation. The cycle of 3 doses of Nani-P2 followed by 3 doses of CY was repeated until day 50.

[2] = test system: 4T1 breast tumor; experiment: 4T1 primary breast tumor growth in BALB/c mice; type: in vivo, mouse; settings: 400 ng partially-purified, SC, days 0, 7, 14, 21 (Nani-P3 also 2 μg); from day 15, p<0.05
Procedure: BALB/c mice were injected (SC) with 1×10^4 4 T1, 1×10^5 TS/A or 2×10^5 SM1 cells, respectively, in the left mammary pad on day 0. […] The control group received PBS injection. […] Tumor burden (tumor volume) was measured and recorded three times weekly. Animals were sacrificed when tumors reached a volume of 15 mm in diameter and the tumors harvested and weighed.
The therapeutic effect of systemic administration of synthetic, Tat-derived compositions in murine models of breast cancer was investigated. […]

Molecule	mice dead by day 42 [1]	4T1 tumor burden versus PBS control [2]
O=P1(N(CCCl)CCCl)NCCCO1 (stereo not drawn) [cyclophosphamide, reference compound]	10/10	–
B1	–	significantly reduced tumor burden; also recorded: significant
B2	–	less effective at suppressing 4T1 primary tumor growth; also recorded: no difference
